Data taken from IntAct's records for PubMed 31515488.

B1: Glutathione S-transferase Mu 5 (Homo sapiens), P46439 (parent)
chain: MPMTLGYWDIRGLAHAIRLLLEYTDSSYVEKKYTLGDAPDYDRSQWLNEKFKLGLDFPNLPYLIDGAHKITQSNAILRYIARKHNLCGETEEEKIRVDILENQVMDNHMELVRLCYDPDFEKLKPKYLEELPEKLKLYSEFLGKRPWFAGDKITFVDFLAYDVLDMKRIFEPKCLDAFLNLKDFISRFEGLKKISAYMKSSQFLRGLLFGKSATWNSK
partner: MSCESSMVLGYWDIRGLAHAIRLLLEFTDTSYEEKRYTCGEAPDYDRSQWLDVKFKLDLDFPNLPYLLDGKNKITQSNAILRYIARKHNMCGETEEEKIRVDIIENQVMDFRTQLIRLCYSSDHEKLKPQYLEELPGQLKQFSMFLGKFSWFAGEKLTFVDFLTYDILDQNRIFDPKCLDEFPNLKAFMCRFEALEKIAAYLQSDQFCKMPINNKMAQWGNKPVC
B2: Serine/threonine-protein kinase PAK 5 (Homo sapiens), Q9P286 (parent)
chain: MFGKKKKKIEISGPSNFEHRVHTGFDPQEQKFTGLPQQWHSLLADTANRPKPMVDPSCITPIQLAPMKTIVRGNKPCKETSINGLLEDFDNISVTRSNSLRKESPPTPDQGASSHGPGHAEENGFITFSQYSSESDTTADYTTEKYREKSLYGDDLDPYYRGSHAAKQNGHVMKMKHGEAYYSEVKPLKSDFARFSADYHSHLDSLSKPSEYSDLKWEYQRASSSSPLDYSFQFTPSRTAGTSGCSKESLAYSESEWGPSLDDYDRRPKSSYLNQTSPQPTMRQRSRSGSGLQEPMMPFGASAFKTHPQGHSYNSYTYPRLSEPTMCIPKVDYDRAQMVLSPPLSGSDTYPRGPAKLPQSQSKSGYSSSSHQYPSGYHKATLYHHPSLQSSSQYISTASYLSSLSLSSSTYPPPSWGSSSDQQPSRVSHEQFRAALQLVVSPGDPREYLANFIKIGEGSTGIVCIATEKHTGKQVAVKKMDLRKQQRRELLFNEVVIMRDYHHDNVVDMYSSYLVGDELWVVMEFLEGGALTDIVTHTRMNEEQIATVCLSVLRALSYLHNQGVIHRDIKSDSILLTSDGRIKLSDFGFCAQVSKEVPKRKSLVGTPYWMAPEVISRLPYGTEVDIWSLGIMVIEMIDGEPPYFNEPPLQAMRRIRDSLPPRVKDLHKVSSVLRGFLDLMLVREPSQRATAQELLGHPFLKLAGPPSCIVPLMRQYRHH
partner: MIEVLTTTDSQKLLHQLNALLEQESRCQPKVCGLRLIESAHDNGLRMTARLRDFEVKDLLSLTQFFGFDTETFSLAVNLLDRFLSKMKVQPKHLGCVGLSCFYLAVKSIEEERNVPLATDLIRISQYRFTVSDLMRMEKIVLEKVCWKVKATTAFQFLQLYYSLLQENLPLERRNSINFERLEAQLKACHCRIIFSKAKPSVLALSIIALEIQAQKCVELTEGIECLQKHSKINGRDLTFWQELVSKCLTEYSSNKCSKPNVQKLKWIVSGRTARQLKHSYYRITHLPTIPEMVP
B3: Ribosome biogenesis protein SLX9 homolog (Homo sapiens), Q9NSI2 (parent)
chain: MGKVRGLRARVHQAAVRPKGEAAPGPAPPAPEATPPPASAAGKDWAFINTNIFARTKIDPSALVQKLELDVRSVTSVRRGEAGSSARSVPSIRRGAEAKTVLPKKEKMKLRREQWLQKIEAIKLAEQKHREERRRRATVVVGDLHPLRDALPELLGLEAGSRRQARSRESNKPRPSELSRMSAAQRQQLLEEERTRFQELLASPAYRASPLVAIGQTLARQMQLEDGGQL
partner: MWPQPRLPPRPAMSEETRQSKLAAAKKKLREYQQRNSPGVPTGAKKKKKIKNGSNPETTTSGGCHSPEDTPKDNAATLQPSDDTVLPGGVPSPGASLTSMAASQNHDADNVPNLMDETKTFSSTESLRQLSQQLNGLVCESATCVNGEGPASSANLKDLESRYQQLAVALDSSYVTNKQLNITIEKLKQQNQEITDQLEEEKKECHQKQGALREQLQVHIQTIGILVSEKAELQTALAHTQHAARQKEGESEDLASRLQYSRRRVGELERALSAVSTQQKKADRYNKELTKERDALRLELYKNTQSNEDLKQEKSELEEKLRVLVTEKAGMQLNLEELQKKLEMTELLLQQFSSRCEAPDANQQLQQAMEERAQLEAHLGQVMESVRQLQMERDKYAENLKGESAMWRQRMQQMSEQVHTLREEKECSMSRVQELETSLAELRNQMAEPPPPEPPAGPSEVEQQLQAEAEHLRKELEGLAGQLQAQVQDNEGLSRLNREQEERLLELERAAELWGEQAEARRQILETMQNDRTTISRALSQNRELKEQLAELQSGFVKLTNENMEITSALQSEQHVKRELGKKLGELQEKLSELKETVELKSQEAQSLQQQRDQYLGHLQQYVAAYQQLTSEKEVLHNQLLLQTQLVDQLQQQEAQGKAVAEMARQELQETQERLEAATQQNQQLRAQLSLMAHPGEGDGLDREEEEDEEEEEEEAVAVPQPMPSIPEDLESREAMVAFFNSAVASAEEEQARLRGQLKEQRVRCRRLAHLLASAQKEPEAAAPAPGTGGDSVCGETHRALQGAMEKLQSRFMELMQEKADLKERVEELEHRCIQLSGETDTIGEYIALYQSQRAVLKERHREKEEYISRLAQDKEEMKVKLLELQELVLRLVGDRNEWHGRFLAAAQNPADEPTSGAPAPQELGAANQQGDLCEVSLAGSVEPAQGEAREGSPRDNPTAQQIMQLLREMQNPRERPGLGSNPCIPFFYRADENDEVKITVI
B4: PDCD10 and GCKIII kinases-associated protein 1 (Homo sapiens), Q8IY42 (parent)
chain: MGCRCCKIIQSYLFDPVQVPSPGYVNEVNSCKLDEDDTDKLKGKWSSEVLVQKNDPQRQGSKKTESSSRTADPWEPCWPHQGPLPQGDAGGEHHACGVNGIGPAATPQPTGNSSPTQDDRGSWASTANTVPPTQPFLEGGGTRKQDCVLLASEGTQVMRNGDSRAPSEAESFALEVQDHVFQIPAPDYLQHWGPAGDNVDHNEKDCVFKNHTEDESLEGIQPPVGEHGLNTPFSVRRSWDSLNEDVETEVLSICFNEKGPVHAMPVVDSGNRQEDTHGSDGDGDGEIVDEDAAVAEALAALEAATAGEDLDETD
B5: Protein-lysine methyltransferase METTL21C (Homo sapiens), Q5VZV1 (parent)
chain: MDVCLSSAQQPGRRGEGLSSPGGWLEAEKKGAPQKDSTGGVLEESNKIEPSLHSLQKFVPTDYASYTQEHYRFAGKEIVIQESIESYGAVVWPGAMALCQYLEEHAEELNFQDAKILEIGAGPGLVSIVASILGAQVTATDLPDVLGNLQYNLLKNTLQCTAHLPEVKELVWGEDLDKNFPKSAFYYDYVLASDVVYHHYFLDKLLTTMVYLSQPGTVLLWANKFRFSTDYEFLDKFKQVFDTTLLAEYPESSVKLFKGILKWD
B6: Macrophage scavenger receptor types I and II (Homo sapiens), P21757 (parent)
chain: MEQWDHFHNQQEDTDSCSESVKFDARSMTALLPPNPKNSPSLQEKLKSFKAALIALYLLVFAVLIPLIGIVAAQLLKWETKNCSVSSTNANDITQSLTGKGNDSEEEMRFQEVFMEHMSNMEKRIQHILDMEANLMDTEHFQNFSMTTDQRFNDILLQLSTLFSSVQGHGNAIDEISKSLISLNTTLLDLQLNIENLNGKIQENTFKQQEEISKLEERVYNVSAEIMAMKEEQVHLEQEIKGEVKVLNNITNDLRLKDWEHSQTLRNITLIQGPPGPPGEKGDRGPTGESGPRGFPGPIGPPGLKGDRGAIGFPGSRGLPGYAGRPGNSGPKGQKGEKGSGNTLTPFTKVRLVGGSGPHEGRVEILHSGQWGTICDDRWEVRVGQVVCRSLGYPGVQAVHKAAHFGQGTGPIWLNEVFCFGRESSIEECKIRQWGTRACSHSEDAGVTCTL

Variants of: B1
Details: with gstm3_human GSTM3, P21266

Variant	effect of a mutation on the interaction
L179P	with no effect

Variants of: B2
Details: with ccng1_human CCNG1, P51959

Variant	effect of a mutation on the interaction
R335P	with no effect
V604I	with no effect
S511N	with no effect

Variants of: B3
Details: with goga2_human GOLGA2, Q08379

Variant	effect of a mutation on the interaction
T138M	disrupting interaction strength

Variants of: B4
Details: with pdc10_human PDCD10, Q9BUL8
Sequence of pdc10_human PDCD10, Q9BUL8 (Q9BUL8 whole entry): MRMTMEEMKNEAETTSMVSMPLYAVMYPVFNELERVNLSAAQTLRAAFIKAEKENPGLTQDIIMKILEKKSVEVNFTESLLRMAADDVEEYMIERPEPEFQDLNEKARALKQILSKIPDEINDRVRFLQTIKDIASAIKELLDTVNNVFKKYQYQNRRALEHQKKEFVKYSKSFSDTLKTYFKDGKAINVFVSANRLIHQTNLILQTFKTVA

Variant	effect of a mutation on the interaction
A151T	with no effect

Variants of: B4
Details: with eif3e_human EIF3E

Variant	effect of a mutation on the interaction
A151T	with no effect

Variants of: B5
Details: with eloc_human ELOC

Variant	effect of a mutation on the interaction
G15R	with no effect

Variants of: B6
Details: with sc22a_human SEC22A

Variant	effect of a mutation on the interaction
P275A	with no effect
P346L	with no effect

Variants of: B6
Details: with lerl1_human LEPROTL1, O95214
Sequence of lerl1_human LEPROTL1, O95214 (O95214 whole entry): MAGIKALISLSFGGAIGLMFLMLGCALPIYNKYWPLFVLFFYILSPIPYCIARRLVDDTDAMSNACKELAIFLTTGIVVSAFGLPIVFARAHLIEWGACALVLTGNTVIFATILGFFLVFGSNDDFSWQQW

Variant	effect of a mutation on the interaction
P286T	with no effect
